T1: GST fusion protein with α catenin (mouse, UniProt P26231 1-906)
T1 sequence (looked up): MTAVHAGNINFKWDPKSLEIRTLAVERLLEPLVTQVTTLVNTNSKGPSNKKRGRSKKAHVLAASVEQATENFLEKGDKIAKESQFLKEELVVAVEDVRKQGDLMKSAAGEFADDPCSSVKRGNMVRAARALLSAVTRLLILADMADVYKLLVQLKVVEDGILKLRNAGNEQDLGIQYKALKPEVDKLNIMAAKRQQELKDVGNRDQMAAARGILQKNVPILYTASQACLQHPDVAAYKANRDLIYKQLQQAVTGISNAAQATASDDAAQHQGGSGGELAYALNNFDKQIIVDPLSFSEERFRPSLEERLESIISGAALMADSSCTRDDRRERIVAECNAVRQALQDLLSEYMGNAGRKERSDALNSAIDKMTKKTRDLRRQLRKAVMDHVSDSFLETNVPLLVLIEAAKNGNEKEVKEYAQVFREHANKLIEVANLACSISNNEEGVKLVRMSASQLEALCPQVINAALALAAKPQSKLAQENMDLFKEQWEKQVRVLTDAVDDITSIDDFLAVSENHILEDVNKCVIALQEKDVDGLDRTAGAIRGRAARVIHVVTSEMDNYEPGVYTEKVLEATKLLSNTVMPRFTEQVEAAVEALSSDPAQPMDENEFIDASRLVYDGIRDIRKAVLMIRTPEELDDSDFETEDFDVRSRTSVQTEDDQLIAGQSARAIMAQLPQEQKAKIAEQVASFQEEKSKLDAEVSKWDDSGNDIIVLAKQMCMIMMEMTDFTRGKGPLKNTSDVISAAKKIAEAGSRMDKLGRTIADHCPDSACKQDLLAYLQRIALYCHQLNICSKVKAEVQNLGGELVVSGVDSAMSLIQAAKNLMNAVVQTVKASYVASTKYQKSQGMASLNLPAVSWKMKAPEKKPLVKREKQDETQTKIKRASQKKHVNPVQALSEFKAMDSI


Experiments:
[1] = molecular target: actin filaments (actin purified from rabbit skeletal muscle, polymerized) (rabbit, UniProt P68135 1-377); test: co-sedimentation
[2] = molecular target: T1, GST fusion protein with α catenin; test: pull-down

Kd [1]	Kd [2]	Binder
~10 nM		recombinant carboxyl-terminal half of ZO-1 (C-ZO-1; 863–1745 aa) produced in Sf9 cells (domain or fragment) NDEVGTPPESAITRSSEPVREDSSGMHHENQTYPPYSPQAQPQAIHRIDSPGLKPASQQKAEASSPVPYLSPETTPASSASAVNHNVSVTNVSLEEPAPAPPTSHASQPGCLGAPSAEAAHVVLRGEGPPLPPHADPAKVYRKEPYSEEMMRQNHILKQPALGHPGQRPDKEPNLAYEPQLPYIEKQASRDLEQPSYRYEVSSYTDQFSRNYDHRLRFEDRIPTYEDQWSYYDDKQPYQPRPFENQHPRDLDSRQHPEEASERGYFQRFEEPAPLSYDSRTRYEQLPRTSTLRHEEQPAPAYEVHNRYRPEAQPYSSTGPKSSEPKQYFDQYPRSYEQVPPPGFTSKTGHYEPLHGAAVVPPLIPSSQQKPEVLPSATKPQPPPPTLTEEEEDPAMKPQSVLTRVKMFENKRSASLENKKDVNDTASFKPPEVASKPPGASLAGPKPVPQSQFSEHDKTLYRLPEPQKPQVKPPEDIVRSNHYDPEEDEEYYRKQLSYFDRRSFESKPSAHLPAGHHSEPAKPVHSQSQPNFSSYSSKGKPETDAVDRSFSEKRYDPAQATPPPPPLPSQYSQPAPPLSSSSLHIHSKGAQGEGNSVSLDFQNSYMSKPDPPPSQSKPATFRPPTREDPPQTFYPQKSFPDKAPVNGAEQTQKTITPVYNRFTPKPYTSSARPFERKFESPKFNHNLLPSETVHKPELSSKTPTSPKTLMKAHSSTQPPEFDSGVETFSVHTDKPKYQMNNISTMPKAVPVSPSAVEEDEDEDGHTVVATARGIFNSNGGVLSSIETGVSIIIPQGAIPEGIEQEIYFKVCRDNSILPPLDKEKGETLLSPLVMCGPHGLKFLKPVELRLPHCDPKTWQNKCLPGDPNYLVGANCVSVLIDHF
	~0.5 nM	recombinant amino-terminal half dlg-like domain of ZO-1 (N-ZO-1; 1–862 aa) produced in Sf9 cells (domain or fragment, mouse, UniProt P39447 1-862, looked up) MSARAAAAKSTAMEETAIWEQHTVTLHRAPGFGFGIAISGGRDNPHFQSGETSIVISDVLKGGPAEGQLQENDRVAMVNGVSMDNVEHAFAVQQLRKSGKNAKITIRRKKKVQIPVSHPDPEPVSDNEDDSYDEEVHDPRAGRGALANRRSEKSWARDRSASRERSLSPRSDRRSVASSQPAKPTKVTLVKSRKNEEYGLRLASHIFVKEISQDSLAARDGNIQEGDVVLKINGTVTENMSLTDAKTLIERSKGKLKMVVQRDERATLLNVPDLSDSIHSANASERDDISEIQSLASDHSGRSHDRPPRRSQSRSPDQRSEPSDHSTQSPQQPSNGSLRSREEERMSKPGAISTPVKHVDDHPPKAVEEVTVEKNEKQTPTLPEPKPVYAQVGQPDVDLPVSPSDGALPNSAHEDGILRPSMKLVKFRKGDSVGLRLAGGNDVGIFVAGVLEDSPAAKEGLEEGDQILRVNNVDFTNIIREEAVLFLLDLPKGEEVTILAQKKKDVYRRIVESDVGDSFYIRTHFEYEKESPYGLSFNKGEVFRVVDTLYNGKLGSWLAIRIGKNHKEVERGIIPNKNRAEQLASVQYTLPKTAGGDRADFWRFRGLRSSKRNLRKSREDLSAQPVQTKFPAYERVVLREAGFLRPVTIFGPIADVAREKLAREEPDIYQIAKSEPRDAGTDHRSSGIIRLHTIKQIIDQDKHALLDVTPNAVDRLNYAQWYPIVVFLNPDSKQGVKTMRMRLCPESRKSARKLYERSHKLRKNNHHLFTTTINLNSMNDGWYGALKEAIQQQQNQLVWVSEGKADGATSDDLDLHDDRLSYLSAPGSEYSMYSTDSRHTSDYEDTDTEGGAYTDQELDETL

Reference: PMC2139940 (The Journal of Cell Biology, 1997)
